This assay addresses bovine PD-1-His (bovine). In words: SPR (Biacore X100), bovine PD-1-His immobilised on a CM5 chip, antibody as analyte, single kinetics, 3 repeats. On the technique in general: SPR reads the build-up and loss of mass on a sensor chip optically.

For orientation: Kd means the concentration at which binding is half-saturated. Higher therefore signals lower affinity. One may read the koff as the first-order rate constant of dissociation. As usually defined, the kon is the rate constant with which the complex forms. High values mean fast association, low ones slow association.

B1: rat anti-bovine PD-1 monoclonal antibody 5D2 (antibody, V domains shown)
VH: QVQLKETGPGLVQPTQTLSITCTVSGFSLTSYYIQWVRQTPGKGLEWMGFIRSGGSTEYNSEFKSRLSINRDTSKNQVFLKMNSLKTEDTGVYYCARTSSGYEGGFDYWGQGVMVTVSS
VL: DVVLTQTPVSLSVTLGDQASISCRSSQSLEYSDGYTYLEWYLQKPGQSPQLLIYGVSNRFSGVPDRFIGSGSGTDFTLKISRVEPEDLGVYYCFQATHDPDTFGAGTKLELK
In the case of B1, the dissociation constant (Kd) was 0.0122 µM, the koff is 0.000215 s⁻¹ and the kon was 18400 M⁻¹ s⁻¹.

For the origin of these results see patent US20250066483A1.
